From patent EP4729537A1 (Universitat Politècnica de València, dated 2024) come the findings set out here.

The target of assay [1] is T1, antigenic protein: class A β-lactamase fragment of Mycobacterium abscessus (Blamab gene) with C-terminal TEV … (Mycobacterium abscessus). The assay can be described thus: cell-based or functional assay.
Assay [2] deals with T2, KPC-2 from Klebsiella pneumoniae, expressed in the periplasm of E. coli BL21(DE3) (Klebsiella pneumoniae, UniProt Q848S6 25-293). Kind of assay: cell-based or functional assay.
Assay [3] addresses T3, VIM-2 from Pseudomonas aeruginosa, expressed in the periplasm of E. coli BL21(DE3) (Pseudomonas aeruginosa). The assay can be described thus: cell-based or functional assay.
For assay [4], the target named is T4, OXA-48 from Klebsiella pneumoniae, expressed in the periplasm of E. coli BL21(DE3) (Klebsiella pneumoniae, UniProt Q6XEC0 23-265, limits assumed). Kind of assay: cell-based or functional assay.
In assay [5] the target is T1, antigenic protein: class A β-lactamase …. Kind of assay: nitrocefin hydrolysis assay with purified enzyme, Lineweaver-Burk.
Assay [6] has as its target T2, KPC-2 from Klebsiella pneumoniae, …. Kind of assay: nitrocefin assay on E. coli BL21(DE3) cells with the β-lactamase in the periplasm.
Assay [7] concerns the target T3, VIM-2 from Pseudomonas aeruginosa, …. The description is as above.
Assay [8] deals with T4, OXA-48 from Klebsiella pneumoniae, …. The assay is described as above.

B1: β-lactamase inhibitor B2 antibody (VHH)
VHH: QVQLQESGGGLVQAGGSLRLSCAASGTIFVYPYMGWYRQAPGKEREFVAGIGQGATTYYADSVKGRFTISRDNAKNTVYLQMNSLKPEDTAVYYCAAYRYRDDVRRYGIDRYHTYWGQGTQVTVSS
notes: sdAb from a synthetic naive yeast display library; expressed from pET26b in the E. coli periplasm and purified by chromatography; also called sdAb B2
Turning to B1, in assay [1], the “Km (µM), with antibody” value is 64.4 µM. Further, the “Vmax (µM/min), with antibody” value in assay [1] came out at 0.25 µM/min. Also, the “Km(µM), with B2” value in assay [2] was found to be 121 µM; in assay [3], 39.6 µM; in assay [4] it was 6.62 µM. The “Vmax(µM/min), with B2” value in assay [2] was 0.7 µM/min; in assay [3], 0.017 µM/min; in assay [4] it was 0.059 µM/min. The Ki was found to be 2.4 µM in assay [5], 0.06 µM in assay [6], 2.9 µM in assay [7] and 10.5 µM in assay [8].

B2: β-lactamase inhibitor B3 antibody (VHH)
VHH: QVQLQESGGGLVQAGGSLRLSCAASGTIFYYPYMGWYRQAPGKEREFVAGIDYGSTTYYADSVKGRFTISRDNAKNTVYLQMNSLKPEDTAVYYCAVVYLVTRKGASQQDEIYSYWGQGTQVTVSS
notes: sdAb from a synthetic naive yeast display library; expressed from pET26b in the E. coli periplasm and purified by chromatography; also called sdAb B3
As to B2, in assay [1], the “Km (µM), with antibody” value amounted to 51.9 µM and the “Vmax (µM/min), with antibody” value came to 0.34 µM/min. Further, the Ki in assay [5] was 2.7 µM.

B3: β-lactamase inhibitor B4 antibody (VHH)
VHH: QVQLQESGGGLVQAGGSLRLSCAASGTIFAQDYMGWYRQAPGKEREFVASIAYGTITYYADSVKGRFTISRDNAKNTVYLQMNSLKPEDTAVYYCAVYPTPVTDYIYWGQGTQVTVSS
notes: sdAb from a synthetic naive yeast display library; expressed from pET26b in the E. coli periplasm and purified by chromatography; also called sdAb B4
For the molecule B3, in assay [1], the “Km (µM), with antibody” value worked out at 45.6 µM and the “Vmax (µM/min), with antibody” value came to 0.28 µM/min. Moreover, in assay [5], the affinity, expressed as Ki, was 5.2 µM.

B4: single domain antibody B1 (VHH)
VHH: QVQLQESGGGLVQAGGSLRLSCAASGNIFTVSSMGWYRQAPGKEREFVAAISDGATTNYADSVKGRFTISRDNAKNTVYLQMNSLKPEDTAVYYCAAYASRVGLTVYWGQGTQVTVSS
notes: sdAb from a synthetic naive yeast display library; expressed from pET26b in the E. coli periplasm and purified by chromatography; also called sdAb B1
For the molecule B4, in assay [1], the “Km (µM), with antibody” value came to 42.6 µM and the “Vmax (µM/min), with antibody” value came out at 0.26 µM/min. This molecule returned a Ki in assay [5] of 15.6 µM.

B5: β-lactamase inhibitor B6 antibody (VHH)
VHH: QVQLQESGGGLVQAGGSLRLSCAASGTISAVSGMGWYRQAPGKEREFVASINRGSTTNYADSVKGRFTISRDNAKNTVYLQMNSLKPEDTAVYYCAALHGTGRVHVYWGQGTQVTVSS
notes: sdAb from a synthetic naive yeast display library; expressed from pET26b in the E. coli periplasm and purified by chromatography; also called sdAb B6
As for B5, in assay [1], the “Km (µM), with antibody” value worked out at 53.3 µM and the “Vmax (µM/min), with antibody” value was found to be 0.26 µM/min. This molecule also returned an inhibition constant (Ki) in assay [5] of 4.9 µM.

B6: β-lactamase inhibitor B5 antibody (VHH)
VHH: QVQLQESGGGLVQAGGSLRLSCAASGNISDLGTMGWYRQAPGKEREFVAGIGTGSNTYYADSVKGRFTISRDNAKNTVYLQMNSLKPEDTAVYYCAVIAGRSYWIYFYYWGQGTQVTVSS
notes: sdAb from a synthetic naive yeast display library; expressed from pET26b in the E. coli periplasm and purified by chromatography; also called sdAb B5
In the case of B6, the “Km (µM), with antibody” value in assay [1] is 57.3 µM. Moreover, the “Vmax (µM/min), with antibody” value in assay [1] worked out at 0.23 µM/min. The “Km(µM), with B5” value was determined as 2.19 µM in assay [2], 0.97 µM in assay [3] and 2.26 µM in assay [4]. For the same molecule, the “Vmax(µM/min), with B5” value came to 0.5 µM/min in assay [2], 0.0084 µM/min in assay [3] and 0.061 µM/min in assay [4]. In addition, the Ki in assay [5] was 3.8 µM; in assay [6] it was 0.12 µM; in assay [7], 68.9 µM; in assay [8], 30.8 µM.
